Test results taken from the Human Domainome abundance scans (Beltran et al. 2025).
± gives the uncertainty stated by the source.

Experiment: abundance fitness (aPCA) (normalised: wild type 0, dead -1); higher = more abundant; growth selection in yeast, the domain comes from the species named
Conditions: Homo sapiens

| Substance | abundance fitness |
| --- | --- |
| DnaJ homolog subfamily B member 1 Y24K, P25685 | -0.358 ± 0.099 |
| DnaJ homolog subfamily B member 1 Y24L, P25685 | -0.492 ± 0.061 |
| DnaJ homolog subfamily B member 1 Y24M, P25685 | -0.223 ± 0.074 |
| DnaJ homolog subfamily B member 1 Y24N, P25685 | -0.408 ± 0.11 |
| DnaJ homolog subfamily B member 1 Y24Q, P25685 | -0.547 ± 0.091 |
| DnaJ homolog subfamily B member 1 Y24R, P25685 | -0.404 ± 0.055 |
| DnaJ homolog subfamily B member 1 Y24S, P25685 | -0.464 ± 0.055 |
| DnaJ homolog subfamily B member 1 Y24T, P25685 | -0.427 ± 0.08 |
| DnaJ homolog subfamily B member 1 Y24V, P25685 | -0.547 ± 0.09 |
| DnaJ homolog subfamily B member 1 Y24W, P25685 | -0.159 ± 0.079 |
| DnaJ homolog subfamily B member 1 Y31A, P25685 | -0.175 ± 0.12 |
| DnaJ homolog subfamily B member 1 Y31D, P25685 | -0.27 ± 0.16 |
| DnaJ homolog subfamily B member 1 Y31E, P25685 | -0.294 ± 0.089 |
| DnaJ homolog subfamily B member 1 Y31F, P25685 | -0.347 ± 0.17 |
| DnaJ homolog subfamily B member 1 Y31G, P25685 | -0.302 ± 0.1 |
| DnaJ homolog subfamily B member 1 Y31H, P25685 | -0.494 ± 0.21 |
| DnaJ homolog subfamily B member 1 Y31I, P25685 | -0.259 ± 0.052 |
| DnaJ homolog subfamily B member 1 Y31L, P25685 | -0.16 ± 0.063 |
| DnaJ homolog subfamily B member 1 Y31M, P25685 | -0.164 ± 0.092 |
| DnaJ homolog subfamily B member 1 Y31N, P25685 | -0.287 ± 0.14 |
| DnaJ homolog subfamily B member 1 Y31P, P25685 | -0.537 ± 0.095 |
| DnaJ homolog subfamily B member 1 Y31Q, P25685 | -0.181 ± 0.12 |

| Substance | abundance fitness |
| --- | --- |
| DnaJ homolog subfamily B member 1 Y31R, P25685 | -0.401 ± 0.086 |
| DnaJ homolog subfamily B member 1 Y31T, P25685 | -0.369 ± 0.12 |
| DnaJ homolog subfamily B member 1 Y31V, P25685 | -0.234 ± 0.12 |
| DnaJ homolog subfamily B member 1 Y31W, P25685 | -0.188 ± 0.1 |
| DnaJ homolog subfamily B member 1 Y52A, P25685 | -0.265 ± 0.083 |
| DnaJ homolog subfamily B member 1 Y52C, P25685 | -0.404 ± 0.21 |
| DnaJ homolog subfamily B member 1 Y52D, P25685 | -0.3 ± 0.17 |
| DnaJ homolog subfamily B member 1 Y52E, P25685 | -0.441 ± 0.069 |
| DnaJ homolog subfamily B member 1 Y52F, P25685 | 0.076 ± 0.091 |
| DnaJ homolog subfamily B member 1 Y52G, P25685 | -0.194 ± 0.077 |
| DnaJ homolog subfamily B member 1 Y52H, P25685 | -0.03 ± 0.3 |
| DnaJ homolog subfamily B member 1 Y52K, P25685 | -0.337 ± 0.13 |
| DnaJ homolog subfamily B member 1 Y52L, P25685 | -0.39 ± 0.071 |
| DnaJ homolog subfamily B member 1 Y52M, P25685 | -0.049 ± 0.091 |
| DnaJ homolog subfamily B member 1 Y52N, P25685 | -0.195 ± 0.14 |
| DnaJ homolog subfamily B member 1 Y52P, P25685 | -0.466 ± 0.1 |
| DnaJ homolog subfamily B member 1 Y52Q, P25685 | -0.306 ± 0.11 |
| DnaJ homolog subfamily B member 1 Y52R, P25685 | -0.305 ± 0.071 |
| DnaJ homolog subfamily B member 1 Y52S, P25685 | -0.332 ± 0.058 |
| DnaJ homolog subfamily B member 1 Y52T, P25685 | -0.333 ± 0.089 |
| DnaJ homolog subfamily B member 1 Y52V, P25685 | -0.249 ± 0.089 |
| DnaJ homolog subfamily B member 1 Y52W, P25685 | 0.005 ± 0.074 |
